The target of assay [1] is MBP-RNF4(WT) (UniProt O88846). The experiment in a line: GST pulldown. The settings on record: for ratio to parent: parent: est. 1.0, read off a plot.
Assay [2] deals with GST-ETV4(1-335)(WT) SUMOylated with wild-type SUMO3, P28322;P55854. The experiment in a line: GST pulldown. To be noted: printed grade '++' (legend: ≥50% of RNF4(WT)); parent: +++ (≥80%).

The record followed here is paper PMC5445624.

With “GST-ETV4(1-480)(WT) modified with SUMO3(K11R) (from UniProt P28322;P55854) K96R; K222R; K256R; K328R”, the response (% bound relative to input) in assay [1] (ETV4 co-expressed in bacteria with SUMO3(K11R), lane 5, parent: 49) was found to be 3. The ratio to parent in assay [1] (ETV4 co-expressed with SUMO3(K11R)) was 0.05. Turning to “GST-ETV4(1-480)(WT) modified with SUMO3(WT) (from UniProt P28322;P55854) K96R; K222R; K256R; K328R”, the response (% bound relative to input) in assay [1] (ETV4 co-expressed in bacteria with SUMO3(WT), lane 1, parent: 60) was 12. For the same substance, the ratio to parent in assay [1] (ETV4 co-expressed with SUMO3(WT)) was 0.03. Consider “MBP-RNF4(WT) (from UniProt O88846) SIM1,2mut”, for which, in assay [2], the percent of parent (% of RNF4(WT)) turned out to be 50.
